In article doi:10.1101/2021.02.07.430159 one finds Kd data, which are given here for one molecule.

The assay addresses GST-MLLE protein (MLLE domain of PABPC1). Description: SPR. (SPR reads the build-up and loss of mass on a sensor chip optically.)

One may read the Kd as a measure of binding affinity in units of concentration. Read a low Kd as tighter binding.

SNLNPNAPEFHPGVPWKGLQ [super-PAM2 peptide]: the Kd was 20 nM.
